Test results from patent publication US20230020729A1 (Memorial Sloan Kettering, published 2023).

Target: T1, human Fc Receptor-Like 5 (FcRL5), full length, expressed on cells (human, UniProt Q96RD9 16-977)
T1 construct: also called CD307e; IRTA2
T1 sequence: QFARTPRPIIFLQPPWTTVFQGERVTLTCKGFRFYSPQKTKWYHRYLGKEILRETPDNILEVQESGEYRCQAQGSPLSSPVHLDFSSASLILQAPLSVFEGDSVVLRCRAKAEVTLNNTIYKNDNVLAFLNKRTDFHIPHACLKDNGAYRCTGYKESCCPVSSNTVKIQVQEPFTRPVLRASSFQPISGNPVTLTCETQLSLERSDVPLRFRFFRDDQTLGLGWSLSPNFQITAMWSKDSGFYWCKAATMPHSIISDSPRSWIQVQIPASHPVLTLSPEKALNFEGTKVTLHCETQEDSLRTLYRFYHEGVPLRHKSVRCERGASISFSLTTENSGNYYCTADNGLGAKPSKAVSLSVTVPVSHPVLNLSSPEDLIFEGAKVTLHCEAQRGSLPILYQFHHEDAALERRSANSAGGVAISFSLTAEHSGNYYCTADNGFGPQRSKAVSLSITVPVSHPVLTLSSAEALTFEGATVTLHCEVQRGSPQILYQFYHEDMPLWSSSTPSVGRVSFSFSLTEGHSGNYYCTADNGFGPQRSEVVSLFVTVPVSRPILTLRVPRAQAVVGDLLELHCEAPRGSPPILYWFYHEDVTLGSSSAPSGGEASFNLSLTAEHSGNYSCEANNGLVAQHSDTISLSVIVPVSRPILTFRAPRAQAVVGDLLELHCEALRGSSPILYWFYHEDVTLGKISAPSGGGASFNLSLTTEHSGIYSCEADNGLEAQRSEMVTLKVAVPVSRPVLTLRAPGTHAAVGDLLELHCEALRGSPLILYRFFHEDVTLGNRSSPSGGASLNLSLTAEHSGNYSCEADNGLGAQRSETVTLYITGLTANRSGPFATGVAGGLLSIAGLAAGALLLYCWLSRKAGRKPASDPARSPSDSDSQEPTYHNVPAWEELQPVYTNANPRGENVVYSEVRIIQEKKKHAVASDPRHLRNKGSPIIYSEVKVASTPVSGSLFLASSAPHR
Test: scFv phage: ELISA on His-tag FcRL5, flow cytometry on FcRL5-overexpressing 3T3 and Raji cells

Row | Binder | binding result
1 | ET200-008 scFv (scFv, VL-linker-VH; screened as scFv phage clone) scFv: QSALTQPASVSGSPGQSITISCTGTSSDVGGYNYVSWYQQHPGKAPKLMIYDVSNRPSGVSNRFSGSKSGNTASLTISGLQAEDEADYYCSSYTSSSTSKVFGGGTKLTVLGSRGGGGSGGGGSGGGGSLEMAEVQLVESGGGVVRPGGSLRLSCAASGFTFGDYGMSWVRQAPGKGLEWVSGINWNGGSTGYADSVKGRFTISRDNAKNSLYLQMNSLRAEDTAVYYCARSKYNFHVYYDYWGQGTLVTVSS | binds
2 | ET200-116 scFv (scFv, VL-linker-VH; screened as scFv phage clone) scFv: QPVLTQPPSVSVSPGQTAAIPCSGDKLGDKFASWYQQKPGQSPVLVIYQDTKRPSGIPERFSGSNSGNTATLTISGTQAMDEADYYCQTWASGIVVFGGGTKLTVLGSRGGGGSGGGGSGGGGSLEMAQVQLQQSGPGLVKPSQTLSLTCAISGDSVSSNSAAWNWIRQSPSRGLEWLGRTYYRSKWYNDYAVSVKSRITINPDTSKNQFSLQLNSVTPEDTAVYYCARERSGWKGFDYWGQGTLVTVSS | binds
3 | ET200-112 scFv (scFv, VL-linker-VH; screened as scFv phage clone) scFv: QAVLTQPPSASGTPGQRVTISCSGSSSNIGSNTVNWYQQLPGTAPKLLMYSNDQRPSGVPDRFSGSKSGTSASLAISGLQSEDEADYYCAAWDDSLNGYVFAAGTQLTVLSSRGGGGSGGGGSGGGGSLEMAQVQLQQWGAGLLKPSETLSLTCAVYGGSFSGYYWSWIRQPPGKGLEWIGEINHSGSTNYNPSLKSRVTISVDTSKNQFSLKLSSVTAADTAVYYCAREGLDAFDIWGQGTMVTVSS | binds
4 | ET200-009 scFv (scFv, VL-linker-VH; screened as scFv phage clone) scFv: QSVLTQPPSASGTPGQTVTISCSGSNSNIGSNYVYWYQQLPGTAPKLLIYRNNQRPSGVPDRFSGSKSGTSASLAISGLRSEDEADYYCAAWDDSLSAYVFGTGTKVTVLGSRGGGGSGGGGSGGGGSLEMAQVQLVQSGAEVKKPGASVKVSCKASGYTFTSYGISWVRQAPGQGLEWMGWISAYNGNTNYAQKLQGRVTMTTDTSTSTAYMELRSLRSDDTAVYYCARSSGNMVSWKDMWGQGTLVTVSS | binds
5 | ET200-123 scFv (scFv, VL-linker-VH; screened as scFv phage clone) scFv: QAVLTQPPSASGTPGQRVTISCSGSSSNIGSNTVNWYQQLPGTAPKLLMYNNDQRPSGVPDRFSGSKSGTSASLAISGLQSEDEADYYCAAWDDSLNGYVFGPGTKVTVLGSRGGGGSGGGGSGGGGSLEMAQVQLVESGAEVKKPGASVKVSCKASGYTFTSYGISWVRQAPGQGLEWMGWISAYNGNTNYAQKLQGRVTMTTDTSTSTAYMELRSLRSDDTAVYYCARDLSRGANPHYYYYYGMDVWGQGTTVTVSS | binds
6 | ET200-115 scFv (scFv, VL-linker-VH; screened as scFv phage clone) scFv: QSVLTQPPSVSGAPGQRVTISCTGSSSNIGARYDVHWYQQLPGTAPRLLISANYDRPSGVPDRFSGSKSGTSASLAITGLQAEDEADYYCQSYDSSVSAWVFGGGTKVTVLGSRGGGGSGGGGSGGGGSLEMAEVQLVQSGAEVKEPGASVRISCQASGYNFISYYMHWVRQAPGQGLEWMGTINPGSGETDYSQKLQGRVTMTRDPSTGTFDMGLSSLTSGDTAVYYCATGLIRGASDAFNIWGRGTMVTVSS | binds
7 | ET200-010 scFv (scFv, VL-linker-VH; screened as scFv phage clone) scFv: QSALTQPASVSGSPGQSITISCTGTSSDVGGYNSVSWYQQHPGKAPRLMIYDVSNRPSGVSNRFSGSKSGNTASLTISGLQAEDEADYYCSSYTSSSTPLVFGTGTKVTVLGSRGGGGSGGGGSGGGGSLEMAQVQLVQSGAEVKKPGASVKVSCKASGYTFTSYGISWVRQAPGQGLEWMGWISAYNGNTNYAQKLQGRVTMTTDTSTSTAYMELRSLRSDDTAVYYCARGAVAYHDWGQGTLVTVSS | binds
8 | ET200-124 scFv (scFv, VL-linker-VH; screened as scFv phage clone) scFv: SYVLTQPPSVSVAPGKTARISCGGNDIGSKSVFWYQQRPGQAPVLVVYDDSDRPSGLPERFSGFNSGNTATLTISRVEAGDEADYYCQVWDSSSDHYVFGTGTKVTVLGSRGGGGSGGGGSGGGGSLEMAQVQLVESGGGLVQPGRSLRLSCAASGFTFDDYAMHWVRQAPGKGLEWVSGISWNSGSIGYADSVKGRFTISRDNAKNSLYLQMNSLRAEDTALYYCAKDITYGSGSYGAFDIWGQGTMVTVSS | binds
9 | ET200-125 scFv (scFv, VL-linker-VH; screened as scFv phage clone) scFv: NFMLTQPHAVSESPGKTVTISCTRSSGSIASNYVQWYQQRPGSSPRTVIYEDNQRPSGVPGRFSGSIDSSSNSASLTISGLKTEDEADYYCQSYDSTSVLFGGGTKLTVLGSRGGGGSGGGGSGGGGSLEMAEVQLVQSGAEVKKPGSSVKVSCKASGGTFSSNSLSWVRQAPGQGLEWMGRIFPILGITNYAQKFQGRVTITADKSTSTAYMELSSLRSEDTAVYYCARGNYQWYDAFDIWGQGTMVTVSS | binds
10 | ET200-113 scFv (scFv, VL-linker-VH; screened as scFv phage clone) scFv: QSVVTQPPSVSAAPGQKVTISCSGSSSNIGNNYVSWYQQLPGTAPKLLIYDNNKRPSGIPDRFSGSKSGTSATLGITGLQTGDEADYYCGTWDSSLSAAYVFGTGTKVTVLGSRGGGGSGGGGSGGGGSLEMAQVQLVQSGAEVKKPGASVKVSCKASGYSFTSYTISWVRQAPGQGLEWMGWVSTYNGLRNYAQNLQGRVTMTTDTLTTTAYMELRSLRSDDTAVYYCVREGSPDYGDFAAFDYWGQGTLVTVSS | binds
11 | ET200-121 scFv (scFv, VL-linker-VH; screened as scFv phage clone) scFv: QSVLTQPPSVSGAPGQRVTVSCTGSRSNIGAGYDVHWYQQLPGTAPKLLIYGNSNRPPGVPDRFSGSKSGTSASLVITGLQAEDAADYYCQSYDNTVRESPYVFGTGTKVTVLGSRGGGGSGGGGSGGGGSLEMAEVQLVQSGAEVKKPGASVKVSCKVSGYTLTELSMHWVRQAPGKGLEWMGGFDPEDGETIYAQKFQGRVTMTEDTSTDTAYMELSSLRSEDTAVYYCATESNLVSRHYYYYGMDVWGQGTTVTVSS | binds
12 | ET200-110 scFv (scFv, VL-linker-VH; screened as scFv phage clone) scFv: QSVLTQPPSASGTPGQRVTISCSGSSSNIGTNGVNWFQQFPGTAPKLLIYTNDQRPSGVPDRFSGSKSGTSASLAISGLQSADEADYYCAVWDHSLNGPVFGGGTKLTVLGSRGGGGSGGGGSGGGGSLEMAQVQLVQSGAEVKKPGSSVKVSCKASGGTFSSYAISWVRQAPGQGLEWMGGIIPIFGTANYAQKFQGRVTITADESTSTAYMELSSLRSEDTAVYYCARGAGFDAFDIWGQGTMVTVSS | binds
13 | ET200-118 scFv (scFv, VL-linker-VH; screened as scFv phage clone) scFv: QAVLTQPASVSGSPGQSITISCTGTSSDVGGYNYVSWYQQHPGKAPKLMIYEVSNRPSGVSNRFSGSKSGNTASLTISGLQAEDEADYYCSSYTSSSTPYVFGAGTKVTVLGSRGGGGSGGGGSGGGGSLEMAEVQLVESGGGLVQPGRSLRLSCAASGFTFDDYAMHWVRQAPGKGLEWVSGISWNSGSIGYADSVKGRFTISRDNAKNSLYLQMNSLRAEDTALYYCAKARWTAVASDHHFDYWGQGTLVTVSS | binds
14 | ET200-005 scFv (scFv, VL-linker-VH; screened as scFv phage clone) scFv: QPVLTQPPSVSVVPGKTARITCGGKNIGSKSVHWYQQKPGQAPVVVIHYDSDRPSGIPERFSGSNSGNTATLTISRVEAGDEADYYCQVWDSSSDHPYVFGTGTKVTVLGSRGGGGSGGGGSGGGGSLEMAQVQLVQSGAEVKKPGASVKVSCKASGYTFTNYGISWVRQAPGQGLEWMGWISAYNGNTNYAHKLQGRVTMTTDTSTSTANMELRSLRPDDTAVYYCARSYFGSHDYWGQGTLVTVSS | binds
